Data on one protein can be found in paper PMC7431086, “Molecular basis of the selective processing of short mRNA substrates by the DcpS mRNA decapping enzyme” (Proceedings of the National Academy of Sciences of the …, 2020).

This series concerns the molecule itself. Put plainly: crystal structure; DcpS (8-350, H268N) in 1:1 complex with m7GpppGU RNA, 5 mg/mL, 10 mM Hepes pH 7.5, 100 mM NaCl, 1.6 M NH4SO4; space group P212121, two dimers per asymmetric unit; 2.9 A.

B1: DcpS from S. cerevisiae (residues 8-350; H268N) (enzyme, UniProt Q06151 8-350, looked up)
chain: FASLIKRFQFVSVLDSNPQTKVMSLLGTIDNKDAIITAEKTHFLFDETVRRPSQDGRSTPVLYNCENEYSCINGIQELKEITSNDIYYWGLSVIKQDMESNPTAKLNLIWPATPIHIKKYEQQNFHLVRETPEMYKRIVQPYIEEMCNNGRLKWVNNILYEGAESERVVYKDFSEENKDDGFLILPDMKWDGMNLDSLYLVAIVYRTDIKTIRDLRYSDRQWLINLNNKIRSIVPGCYNYAVHPDELRILVHYQPSYYHFNIHIVNIKHPGLGNSIAAGKAILLEDIIEMLNYLGPEGYMNKTITYAIGENHDLWKRGLEEELTKQLERDGIPKIPKIVNGFK
notes: Crystallised as a 1:1 complex with the capped dinucleotide m7GpppGU; also called Dcs1p; Scavenger Decapping Enzyme
For the protein B1, the binding result was “binds”.
